These are literature values, as cited in paper PMC8364556.

This series addresses IL-10R complex (Homo sapiens) (UniProt Q13651).

Chain of IL-10 (P22301 19-178): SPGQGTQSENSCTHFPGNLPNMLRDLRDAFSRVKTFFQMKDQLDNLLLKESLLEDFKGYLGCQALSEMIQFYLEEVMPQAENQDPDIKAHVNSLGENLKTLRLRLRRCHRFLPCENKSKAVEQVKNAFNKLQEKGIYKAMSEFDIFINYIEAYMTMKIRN
Chain of IL-10R complex (Homo sapiens) (Q13651 22-235, chain 1 of 2): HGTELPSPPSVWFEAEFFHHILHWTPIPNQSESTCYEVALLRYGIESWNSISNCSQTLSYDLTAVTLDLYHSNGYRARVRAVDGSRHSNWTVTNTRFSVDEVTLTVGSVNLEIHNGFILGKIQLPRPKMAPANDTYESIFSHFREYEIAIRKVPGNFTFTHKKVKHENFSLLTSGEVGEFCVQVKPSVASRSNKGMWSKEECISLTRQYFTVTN
Chain of IL-10R complex (Homo sapiens) (Q08334 20-220, chain 2 of 2, further chain): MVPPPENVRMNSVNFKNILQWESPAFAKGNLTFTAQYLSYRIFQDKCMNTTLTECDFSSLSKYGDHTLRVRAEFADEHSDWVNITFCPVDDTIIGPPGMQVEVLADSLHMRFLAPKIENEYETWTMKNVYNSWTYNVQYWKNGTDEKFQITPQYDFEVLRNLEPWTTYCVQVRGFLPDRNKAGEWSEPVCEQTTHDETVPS

By Kd is commonly meant a measure of binding affinity in units of concentration. Turning to IL-10 (from UniProt P22301), the Kd is 0.56 nM.
